In paper PMC7280502, “Structure and mechanism of the Nap adhesion complex from the human pathogen Mycoplasma genitalium” (Nature Communications, 2020):

How the values were obtained:
[1] = target: P140–P110 heterodimer of the purified Nap complex (full-length proteins, P110His strain) (Mycoplasma genitalium G37 (endogenous) | Mycoplasma genitalium G37) (UniProt P20796); experiment: cryo-EM structure; single-particle cryo-EM of the Nap complex purified from the M. genitalium P110His strain in octylglucoside, 25 μg/ml; 9.8 Å; rigid-body fitting of P140 alone and P110 alone; closed conformation
[2] = target: T1, extracellular region of P140 (residues 23–1351) (Mycoplasma genitalium (strain G37), UniProt P20796 23-1351); experiment: crystal structure; P140 and P110N mixed 1:1 and incubated 30 min at room temperature; crystals from 23% PEG 500MME, 4% PGA, 0.1 M sodium cacodylate pH 6.5, 20 °C; space group P2(1), four heterodimers in the asymmetric unit; 2.65 Å; conditions: both partners purified
T1 construct: also called extracellular P140; source: E. coli B834 (DE3), purified (Histrap, Superdex 200), same protocol as for P110N
T1 sequence: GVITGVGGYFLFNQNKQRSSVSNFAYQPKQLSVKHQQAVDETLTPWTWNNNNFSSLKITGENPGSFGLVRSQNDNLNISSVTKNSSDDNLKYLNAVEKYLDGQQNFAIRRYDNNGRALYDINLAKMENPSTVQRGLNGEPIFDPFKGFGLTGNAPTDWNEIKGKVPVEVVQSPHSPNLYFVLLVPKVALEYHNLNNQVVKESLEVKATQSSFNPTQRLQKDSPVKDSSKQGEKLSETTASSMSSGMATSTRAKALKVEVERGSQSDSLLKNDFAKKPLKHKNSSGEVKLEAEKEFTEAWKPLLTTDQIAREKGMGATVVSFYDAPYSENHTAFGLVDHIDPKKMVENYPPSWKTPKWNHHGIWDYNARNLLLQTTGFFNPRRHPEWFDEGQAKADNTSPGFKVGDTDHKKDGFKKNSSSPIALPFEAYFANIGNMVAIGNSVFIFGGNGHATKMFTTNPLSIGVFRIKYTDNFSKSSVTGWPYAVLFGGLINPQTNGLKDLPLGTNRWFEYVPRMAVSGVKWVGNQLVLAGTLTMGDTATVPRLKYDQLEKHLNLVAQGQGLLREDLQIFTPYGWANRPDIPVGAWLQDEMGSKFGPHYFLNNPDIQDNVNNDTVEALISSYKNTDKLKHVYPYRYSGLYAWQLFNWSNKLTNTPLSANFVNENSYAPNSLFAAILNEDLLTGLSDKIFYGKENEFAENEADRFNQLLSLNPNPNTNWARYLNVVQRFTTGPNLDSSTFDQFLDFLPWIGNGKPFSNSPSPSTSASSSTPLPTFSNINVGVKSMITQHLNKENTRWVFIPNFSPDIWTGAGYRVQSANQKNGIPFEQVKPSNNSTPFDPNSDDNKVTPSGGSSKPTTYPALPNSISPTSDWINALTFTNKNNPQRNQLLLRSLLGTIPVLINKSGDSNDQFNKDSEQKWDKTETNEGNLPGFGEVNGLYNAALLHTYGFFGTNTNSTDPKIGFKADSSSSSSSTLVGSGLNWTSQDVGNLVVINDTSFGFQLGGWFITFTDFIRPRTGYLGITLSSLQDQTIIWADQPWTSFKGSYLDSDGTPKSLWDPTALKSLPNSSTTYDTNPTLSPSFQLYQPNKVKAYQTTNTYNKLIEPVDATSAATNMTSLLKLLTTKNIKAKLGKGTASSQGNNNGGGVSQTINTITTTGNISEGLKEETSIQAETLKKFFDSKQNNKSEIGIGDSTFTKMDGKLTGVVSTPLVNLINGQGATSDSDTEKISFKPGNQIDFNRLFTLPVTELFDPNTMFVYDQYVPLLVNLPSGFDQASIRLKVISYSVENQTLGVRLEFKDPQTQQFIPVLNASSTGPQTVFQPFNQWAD

[3] = target: T1, extracellular region of P140 (residues …); experiment: cryo-EM structure; single-particle cryo-EM of the purified P140–P110 heterodimer (complete extracellular regions) at 20 μg/ml; 4.1 Å, non-isotropic; X-ray P140–P110N structure fitted as a rigid body; conditions: both partners purified

Molecule: P140–P110 heterodimer of the purified Nap complex (full-length proteins, P110His strain), P20796 59-1444; P22747 26-1053
- stoichiometry N [1]: 2

B1: N-terminal domain of P110 (P110N: residues 23–827) (domain or fragment)
chain: ALANTFLVKEDSKNVTAYTPFATPITDSKSDLVSLAQLDSSYQIADQTIHNTNLFVLFKSRDVKVKYESSGSNNISFDSTSQGEKPSYVVEFTNSTNIGIKWTMVKKYQLDVPNVSSDMNQVLKNLILEQPLTKYTLNSSLAKEKGKTQREVHLGSGQANQWTSQRNQHDLNNNPSPNASTGFKLTTGNAYRKLSESWPIYEPIDGTKQGKGKDSSGWSSTEENEAKNDAPSVSGGGSSSGTFNKYLNTKQALESIGILFDDQTPRNVITQLYYASTSKLAVTNNHIVVMGNSFLPSMWYWVVERSAQENASNKPTWFANTNLDWGEDKQKQFVENQLGYKETTSTNSHNFHSKSFTQPAYLISGIDSVNDQIIFSGFKAGSVGYDSSSSSSSSSSSSTKDQALAWSTTTSLDSKTGYKDLVTNDTGLNGPINGSFSIQDTFSFVVPYSGNHTNNGTTGPIKTAYPVKKDQKSTVKINSLINATPLNSYGDEGIGVFDALGLNYNFKSNQERLPSRTDQIFVYGIVSPNELRSAKSSADSTGSDTKVNWSNTQSRYLPVPYNYSEGIIDADGFKRPENRGASVTTFSGLKSIAPDGFANSIANFSVGLKAGIDPNPVMSGKKANYGAVVLTRGGVVRLNFNPGNDSLLSTTDNNIAPISFSFTPFTAAESAVDLTTFKEVTYNQESGLWSYIFDSSLKPSHDGKQTPVTDNMGFSVITVSRTGIELNQDQATTTLDVAPSALAVQSGIQSTTQTLTGVLPLSEEFSAVIAKDSDQNKIDIYKNNNGLFEIDTQLSNSVATNNGGL
notes: P110, product of gene MG_192 of Mycoplasma genitalium strain G37, residues 23–827 (N-terminal domain), amplified from a synthetic clone and cloned into pOPINE; source: E. coli B834 (DE3), purified (Histrap, Superdex 200)
- binding result [2]: binds

B2: extracellular region of P110 (residues 23–938) (domain or fragment)
chain: ALANTFLVKEDSKNVTAYTPFATPITDSKSDLVSLAQLDSSYQIADQTIHNTNLFVLFKSRDVKVKYESSGSNNISFDSTSQGEKPSYVVEFTNSTNIGIKWTMVKKYQLDVPNVSSDMNQVLKNLILEQPLTKYTLNSSLAKEKGKTQREVHLGSGQANQWTSQRNQHDLNNNPSPNASTGFKLTTGNAYRKLSESWPIYEPIDGTKQGKGKDSSGWSSTEENEAKNDAPSVSGGGSSSGTFNKYLNTKQALESIGILFDDQTPRNVITQLYYASTSKLAVTNNHIVVMGNSFLPSMWYWVVERSAQENASNKPTWFANTNLDWGEDKQKQFVENQLGYKETTSTNSHNFHSKSFTQPAYLISGIDSVNDQIIFSGFKAGSVGYDSSSSSSSSSSSSTKDQALAWSTTTSLDSKTGYKDLVTNDTGLNGPINGSFSIQDTFSFVVPYSGNHTNNGTTGPIKTAYPVKKDQKSTVKINSLINATPLNSYGDEGIGVFDALGLNYNFKSNQERLPSRTDQIFVYGIVSPNELRSAKSSADSTGSDTKVNWSNTQSRYLPVPYNYSEGIIDADGFKRPENRGASVTTFSGLKSIAPDGFANSIANFSVGLKAGIDPNPVMSGKKANYGAVVLTRGGVVRLNFNPGNDSLLSTTDNNIAPISFSFTPFTAAESAVDLTTFKEVTYNQESGLWSYIFDSSLKPSHDGKQTPVTDNMGFSVITVSRTGIELNQDQATTTLDVAPSALAVQSGIQSTTQTLTGVLPLSEEFSAVIAKDSDQNKIDIYKNNNGLFEIDTQLSNSVATNNGGLAPSYTENRVDAWGKVEFADNSVLQARNLVDKTVDEIINTPEILNSFFRFTPAFEDQKATLVATKQSDTSLSVSPRIQFLDGNFYDLNSTIAGVPLNIGFPSRVFAGFAALP
notes: P110, product of gene MG_192 of Mycoplasma genitalium strain G37, residues 23–938 (complete extracellular region), amplified from a synthetic clone; source: E. coli B834 (DE3), purified (Histrap, Superdex 200), same protocol as for P110N
- binding result [3]: binds
